Reference: paper doi:10.1101/2022.03.17.484791

Biological target: PY-NLS mutants (R206W/Q/G, P209L, and Y210C)
Assay: co-IP

- reduction in Kapβ2 interaction against WT: 50 to 75%
Substance: Kapβ2, endogenous in HEK293T cells (from UniProt Q92973 1-898) (receptor)
